From paper PMC3760798, “Analysis of the RelA:CBP/p300 Interaction Reveals Its Involvement in NF-κB-Driven Transcription” (PLoS Biology, 2013)

B1: GB1-tagged RelA–TA2 fragment 425–508 wt (domain or fragment, mouse, UniProt Q04207 425-508, looked up)
chain: KSTQAGEGTLSEALLHLQFDADEDLGALLGNSTDPGVFTDLASVDNSEFQQLLNQGVSMSHSTAEPMLMEYPEAITRLVTGSQR
notes: GB1 is the 58-residue B1 domain of streptococcal protein G, kept for concentration determination; also called RelA–TA2 fragment of Lys425–Arg508; source: expressed as His6-GB1 fusion, purified; His6-tag cleaved by TEV protease; not shown: His6, N-terminal, cleaved; GB1, N-terminal, kept
B2: TAZ1 domain of mouse CBP (residues 340–439) (domain or fragment)
chain: not shown
notes: Isotopically labelled in some NMR samples; also called CBP–TAZ1; CH1; source: purified
B3: GB1-tagged RelA fragment 441–508 wt (domain or fragment, mouse, UniProt Q04207 441-508, looked up)
chain: LQFDADEDLGALLGNSTDPGVFTDLASVDNSEFQQLLNQGVSMSHSTAEPMLMEYPEAITRLVTGSQR
notes: RelA (p65), mouse, residues 441-508; also called N-terminal truncation to remove residues Lys425–His440; source: expressed as His6-GB1 fusion, purified; His6-tag cleaved by TEV protease; not shown: His6, N-terminal, cleaved; GB1, N-terminal, kept
B4: GB1-tagged RelA–TA2 fragment 425–508 (L449A) (domain or fragment, mouse, UniProt Q04207 425-508, looked up)
chain: KSTQAGEGTLSEALLHLQFDADEDAGALLGNSTDPGVFTDLASVDNSEFQQLLNQGVSMSHSTAEPMLMEYPEAITRLVTGSQR
notes: also called Leu449Ala; source: expressed as His6-GB1 fusion, purified; His6-tag cleaved by TEV protease; not shown: His6, N-terminal, cleaved; GB1, N-terminal, kept
B5: GB1-tagged RelA–TA2 fragment 425–508 (L465A) (domain or fragment, mouse, UniProt Q04207 425-508, looked up)
chain: KSTQAGEGTLSEALLHLQFDADEDLGALLGNSTDPGVFTDAASVDNSEFQQLLNQGVSMSHSTAEPMLMEYPEAITRLVTGSQR
notes: also called Leu465Ala; source: expressed as His6-GB1 fusion, purified; His6-tag cleaved by TEV protease; not shown: His6, N-terminal, cleaved; GB1, N-terminal, kept
B6: GB1-tagged RelA–TA2 fragment 425–508 (S467D) (domain or fragment, mouse, UniProt Q04207 425-508, looked up)
chain: KSTQAGEGTLSEALLHLQFDADEDLGALLGNSTDPGVFTDLADVDNSEFQQLLNQGVSMSHSTAEPMLMEYPEAITRLVTGSQR
notes: also called RelA(Ser467Asp); phosphomimetic mutant; source: expressed as His6-GB1 fusion, purified; His6-tag cleaved by TEV protease; not shown: His6, N-terminal, cleaved; GB1, N-terminal, kept

Assays:
Conditions in all cases: both partners purified
[1] = biological target: B2; experiment: ITC; TAZ1 (169 to 185 µM) in the syringe, GB1-tagged RelA–TA2 peptide (10 to 18 µM) in the cell; 25°C; 20 mM Tris pH 8.0, 150 mM NaCl, 1 mM DTT; single-binding site model
[2] = biological target: B2; experiment: ITC; TAZ1 (169 to 185 µM) in the syringe, GB1-tagged RelA–TA2 peptide (10 to 18 µM) in the cell; 25°C; 20 mM Tris pH 8.0, 50 mM NaCl, 1 mM DTT; single-binding site model
[3] = biological target: B4; experiment: ITC; TAZ1 (169 to 185 µM) in the syringe, GB1-tagged RelA–TA2 peptide (10 to 18 µM) in the cell; 25°C; 20 mM Tris pH 8.0, 150 mM NaCl, 1 mM DTT; single-binding site model
[4] = biological target: B6; experiment: as above
[5] = biological target: B1; experiment: as above
[6] = biological target: B5; experiment: as above
[7] = biological target: B3; experiment: as above
[8] = biological target: B6; experiment: ITC; TAZ1 (169 to 185 µM) in the syringe, GB1-tagged RelA–TA2 peptide (10 to 18 µM) in the cell; 25°C; 20 mM Tris pH 8.0, 50 mM NaCl, 1 mM DTT; single-binding site model
[9] = biological target: B1; experiment: as above
[10] = biological target: B2; experiment: pull-down; GST-RelA fragments (20 µg) on glutathione sepharose beads with purified TAZ1 (10 µg); 20 mM Tris pH 7.5, 150 mM NaCl, 0.5 mM DTT; 4°C, 30 min; washes with 0.3% TritonX-100; SDS-PAGE
[11] = biological target: B2; experiment: NMR structure; solution structure of the complex; refolded TAZ1 and RelA fragment mixed; 25°C, 20 mM Tris pH 6.5, 40 mM NaCl, 2 mM DTT; 0.7–1.2 mM protein

B1
Kd [1]: 244 nM
Kd [2]: 57 nM

B2
dH [3]: -5.4 kcal/mol
dH [4]: -7.8 kcal/mol
dH [5]: -7.2 kcal/mol
dH [6]: -2.4 kcal/mol
dH [7]: -8.3 kcal/mol
dH [8]: -6.5 kcal/mol
dH [9]: -5.9 kcal/mol

B3
Kd [1]: 387 nM

B4
Kd [1]: 1600 nM

B5
Kd [1]: 1710 nM

B6
Kd [1]: 174 nM
Kd [2]: 41.2 nM

B7: GST-RelA fragment (Lys425–Pro490) Met483Ala (domain or fragment, mouse, UniProt Q04207 425-490, looked up)
chain: KSTQAGEGTLSEALLHLQFDADEDLGALLGNSTDPGVFTDLASVDNSEFQQLLNQGVSASHSTAEP
notes: also called RelA–TA2 M483A (GST); source: E. coli BL21(DE3), purified (glutathione sepharose); not shown: GST, N-terminal, kept
binding result [10]: binds

B8: GST-RelA fragment (Lys425–Pro490), wild type (domain or fragment, mouse, UniProt Q04207 425-490, looked up)
chain: KSTQAGEGTLSEALLHLQFDADEDLGALLGNSTDPGVFTDLASVDNSEFQQLLNQGVSMSHSTAEP
notes: also called GST-RelA–TA2; construct T11; source: E. coli BL21(DE3), purified (glutathione sepharose); not shown: GST, N-terminal, kept
binding result [10]: binds

B9: RelA–TA2 (residues 425–490), tag cleaved (domain or fragment, mouse, UniProt Q04207 425-490, looked up)
chain: KSTQAGEGTLSEALLHLQFDADEDLGALLGNSTDPGVFTDLASVDNSEFQQLLNQGVSMSHSTAEP
notes: 15N/13C labelled for NMR; source: expressed as His6-GB1 fusion, purified (Ni-NTA under denaturing conditions, thrombin cleavage, reverse-phase HPLC); not shown: His6, N-terminal, cleaved; GB1, N-terminal, cleaved
binding result [11]: binds
